Kd data for one molecule are collected here from article PMC3433420, “Comprehensive Binary Interaction Mapping of SH2 Domains via Fluorescence Polarization Reveals Novel Functional Diversification of ErbB Receptors” (PLoS ONE, 2012).

Values joined by “and” are separate entries in the source; they are usually repeats but may differ in a detail not shown here. Identical values can stand only once. Non-standard residues stand in square brackets, D forms with d. No end group written: not given here. pY = N[C@@H](Cc1ccc(OP(=O)(O)O)cc1)C(=O)O; Rhodamine = not defined here

Usually Kd stands for the free concentration of one partner at which half of the binding sites on the other are occupied at equilibrium, for simple one-to-one binding.

Test in all cases: peptide or protein array; SH2/PTB proteins spotted on aldehyde slides, rhodamine peptide titrated in buffer B (20 mM HEPES, 100 mM KCl, 0.1% Tween-20, 5 mM DTT, pH 7.8), 1 h at room temperature; replicate assays
What all share (conditions): both partners purified

One assay has as its target T1, SOCS6 SH2 domain (human, UniProt O14544 384-491).
T1 construct: SOCS6, human; source: bacterial expression, purified
T1 sequence (looked up): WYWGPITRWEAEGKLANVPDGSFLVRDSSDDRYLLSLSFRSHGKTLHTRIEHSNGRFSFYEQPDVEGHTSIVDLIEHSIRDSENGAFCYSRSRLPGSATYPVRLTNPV

A further assay addresses T2, PTPN6 tandem SH2 domains (human).
T2 construct: PTPN6, human; also called PTPN6-NC; source: bacterial expression, purified

Assay [1] deals with T3, PIK3R1 tandem SH2 domains (human, UniProt P27986 1-724).
T3 construct: PIK3R1, human; also called PIK3R1-NC; source: bacterial expression, purified

For another assay, the target named is T4, GRB7 SH2 domain (human, UniProt Q14451 431-527).
T4 construct: GRB7, human; source: bacterial expression, purified

Assay [2] concerns the target T5, PIK3R2 tandem SH2 domains (human, UniProt O00459 1-728).
T5 construct: PIK3R2, human; also called PIK3R2-NC; source: bacterial expression, purified

A further assay deals with T6, NCK1 SH2 domain (human, UniProt P16333 282-376).
T6 construct: NCK1, human; source: bacterial expression, purified

T4 sequence (Q14451 431-527): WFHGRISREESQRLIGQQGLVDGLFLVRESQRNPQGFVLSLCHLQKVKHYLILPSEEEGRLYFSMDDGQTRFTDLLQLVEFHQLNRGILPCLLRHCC
T3 sequence (P27986 whole entry, the tested form may be a part): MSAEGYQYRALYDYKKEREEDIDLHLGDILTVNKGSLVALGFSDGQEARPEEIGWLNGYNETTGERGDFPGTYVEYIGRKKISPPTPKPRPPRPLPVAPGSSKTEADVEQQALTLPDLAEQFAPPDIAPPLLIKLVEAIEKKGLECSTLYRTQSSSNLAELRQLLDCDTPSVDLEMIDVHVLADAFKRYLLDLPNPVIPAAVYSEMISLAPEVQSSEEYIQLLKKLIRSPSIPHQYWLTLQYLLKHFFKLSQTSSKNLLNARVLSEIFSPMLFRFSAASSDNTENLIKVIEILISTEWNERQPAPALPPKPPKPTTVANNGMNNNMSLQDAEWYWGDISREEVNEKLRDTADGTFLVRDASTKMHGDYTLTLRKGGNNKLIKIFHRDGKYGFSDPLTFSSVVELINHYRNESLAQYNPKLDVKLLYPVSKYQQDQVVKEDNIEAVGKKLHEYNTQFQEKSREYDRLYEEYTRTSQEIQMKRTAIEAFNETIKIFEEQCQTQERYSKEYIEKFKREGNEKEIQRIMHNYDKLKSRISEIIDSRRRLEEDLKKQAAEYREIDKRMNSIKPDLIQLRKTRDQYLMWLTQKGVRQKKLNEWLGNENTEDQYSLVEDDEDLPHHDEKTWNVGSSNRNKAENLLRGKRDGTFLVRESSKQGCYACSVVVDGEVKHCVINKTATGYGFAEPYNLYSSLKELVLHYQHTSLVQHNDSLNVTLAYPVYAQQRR
T5 sequence (O00459 whole entry, the tested form may be a part): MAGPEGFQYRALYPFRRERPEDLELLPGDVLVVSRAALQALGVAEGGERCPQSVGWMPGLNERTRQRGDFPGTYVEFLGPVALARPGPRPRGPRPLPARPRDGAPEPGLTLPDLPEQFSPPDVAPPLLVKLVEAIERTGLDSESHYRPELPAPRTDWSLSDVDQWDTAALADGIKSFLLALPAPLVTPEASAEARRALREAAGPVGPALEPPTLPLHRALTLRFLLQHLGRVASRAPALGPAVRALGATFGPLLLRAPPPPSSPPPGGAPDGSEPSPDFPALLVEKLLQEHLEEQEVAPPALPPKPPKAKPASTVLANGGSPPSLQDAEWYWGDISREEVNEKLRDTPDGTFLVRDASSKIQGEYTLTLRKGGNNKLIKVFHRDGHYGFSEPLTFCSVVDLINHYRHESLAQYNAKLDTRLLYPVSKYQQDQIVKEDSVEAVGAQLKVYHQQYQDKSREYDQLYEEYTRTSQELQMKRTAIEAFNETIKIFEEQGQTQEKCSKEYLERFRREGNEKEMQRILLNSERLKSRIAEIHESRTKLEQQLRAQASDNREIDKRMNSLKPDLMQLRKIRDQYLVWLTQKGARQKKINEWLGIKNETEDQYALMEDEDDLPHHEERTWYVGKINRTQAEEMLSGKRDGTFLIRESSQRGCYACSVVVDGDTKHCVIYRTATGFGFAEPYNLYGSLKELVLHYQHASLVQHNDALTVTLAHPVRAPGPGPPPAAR

For Rhodamine-ETDG[pY]VAPLTCSD (reading uncertain) [ErbB2 pY1127 phosphopeptide, rhodamine-labelled, for protein microarrays], the dissociation constant Kd with SOCS6 SH2 domain was 8930 nM and 5200 nM; with PTPN6 tandem SH2 domains, 1620 nM; in assay [1], 10.9 nM and 10 nM; in the assay with GRB7 SH2 domain, 1600 nM and 2530 nM; in assay [2], 10.6 nM and 4.66 nM; in the assay with NCK1 SH2 domain, 6850 nM.
